From article doi:10.1101/2021.10.13.464218 (bioRxiv, 2021)

B1: Nb3 (anti-P53TA) nanobody, yeast-displayed (VHH)
VHH: QVQLQESGGGSVRPGESLRLSCIAAGTLFSGKAVGWYRQAPGKDRELVAALSSGRETYYIGPVKGRFIISRDDNKDTLYLQMNNLKLEDTAIYTCRLGLHWGQGTQVTVSS
B2: IB10 nanobody against intimin, yeast-displayed (VHH)
VHH: QVQLVESGGGSVQAGGSLRLSCKASGFTFPYSDMGWYRQTPGNECELVSTTGPESDPSFWYADSVKGRFTISRDNTKNTVYLQMNDLKPEDTGMYVCASELGAGSGRCYGYHYWGQGTQVTVSS

Assays:
[1] = target: Ag2 (EPEA), displayed on E. coli (synthetic EPEA peptide tag (sequence …)); assay: flow cytometry on cells
[2] = target: intimin (EHEC adhesin), overexpressed on the E. coli surface (Escherichia coli O157:H7 (EHEC), …, UniProt P43261); assay: flow cytometry on cells
Sequence of intimin (EHEC adhesin), overexpressed on the E. coli surface (P43261 40-934): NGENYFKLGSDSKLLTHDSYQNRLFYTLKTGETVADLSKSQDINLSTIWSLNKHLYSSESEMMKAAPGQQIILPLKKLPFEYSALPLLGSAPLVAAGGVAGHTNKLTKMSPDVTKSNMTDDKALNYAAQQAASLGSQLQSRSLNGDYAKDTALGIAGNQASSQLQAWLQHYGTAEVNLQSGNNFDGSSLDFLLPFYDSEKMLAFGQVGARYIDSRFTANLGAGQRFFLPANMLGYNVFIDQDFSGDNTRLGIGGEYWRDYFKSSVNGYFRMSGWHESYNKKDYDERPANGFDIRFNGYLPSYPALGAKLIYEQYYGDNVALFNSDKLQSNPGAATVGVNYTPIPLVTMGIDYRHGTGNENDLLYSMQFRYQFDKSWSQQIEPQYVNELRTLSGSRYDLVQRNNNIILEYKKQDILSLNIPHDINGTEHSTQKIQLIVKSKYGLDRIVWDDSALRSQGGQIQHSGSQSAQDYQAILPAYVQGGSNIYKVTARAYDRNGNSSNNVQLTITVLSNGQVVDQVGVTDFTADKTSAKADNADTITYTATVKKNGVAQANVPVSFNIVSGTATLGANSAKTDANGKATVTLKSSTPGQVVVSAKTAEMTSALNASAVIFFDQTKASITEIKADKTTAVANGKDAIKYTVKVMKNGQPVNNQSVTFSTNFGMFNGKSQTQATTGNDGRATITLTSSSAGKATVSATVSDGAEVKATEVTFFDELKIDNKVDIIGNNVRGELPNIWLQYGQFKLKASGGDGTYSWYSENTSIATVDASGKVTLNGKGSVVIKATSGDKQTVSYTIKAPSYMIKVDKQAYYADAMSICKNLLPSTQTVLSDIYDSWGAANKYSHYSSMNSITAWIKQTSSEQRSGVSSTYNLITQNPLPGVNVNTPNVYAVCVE

Row | Binder | binding result [1] | binding result [2]
1 | B1 | no binding | –
2 | B2 | – | binds
